One molecule from article PMC10790764 can be followed below.

For this assay, the target named is fusion protein F of hMPV A2-GFP (CAN97-83) on infected cells (human metapneumovirus A2 (CAN97-83)).

B1: sdHMPV12 (VHH)
VHH: QVQLQESGGGLVQPGGSLRLSCAASGVSLAWYAIGWFRQAPGKDREGISCISASDDSTYYRDSVKGRVTISRDNGRNTVLLQMNSLKPEDTAVYYCATLRANYCSGPPTLGPYLGQGTQVTVSS
The molecule B1 came in with an other of 9 nM.
